Test results taken from US20180155433A1 (GAMAMABS PHARMA, published 2018).

Columns and labels:
[1] = target: T1, Recombinant human HER3 extracellular domain (ECD) (human, UniProt P21860 20-643); test: ELISA, recombinant human HER3 ECD coated at 50 ng/well, antibody from 3 nM to 6.5 pM, four-parameter fit
T1 construct: extracellular domain; Bought from R&D Systems; also called recombinant human HER3 ECD; HER3 receptor
Description: Nunc Maxisorp plates were coated with 50 ng/well recombinant human HER3 ECD for 16 hours at 4° C. and were blocked with 2% BSA in PBS. Anti-HER3 antibodies GMB301 and H4B-121-emb were serially diluted from 0.5 μg/ml to 1 ng/ml (3 nM to 6.5 pM) and incubated 1 hour at 37° C.

[2] = target: T2, human HER3-Fc (recombinant HER3 extracellular domain Fc fusion, R&D systems) (human, UniProt P21860 20-643); test: ELISA, HER3-Fc coated at 50 ng per well, GMB301 from 3.3 nM to 6.5 pM, HRP anti-human F(ab')2 detection
T2 construct: extracellular domain; Bought reagent (R&D Systems); Coated on plates at 50 ng per well; not shown: Fc part of the bought fusion (R&D Systems)
T2 sequence (P21860 20-643): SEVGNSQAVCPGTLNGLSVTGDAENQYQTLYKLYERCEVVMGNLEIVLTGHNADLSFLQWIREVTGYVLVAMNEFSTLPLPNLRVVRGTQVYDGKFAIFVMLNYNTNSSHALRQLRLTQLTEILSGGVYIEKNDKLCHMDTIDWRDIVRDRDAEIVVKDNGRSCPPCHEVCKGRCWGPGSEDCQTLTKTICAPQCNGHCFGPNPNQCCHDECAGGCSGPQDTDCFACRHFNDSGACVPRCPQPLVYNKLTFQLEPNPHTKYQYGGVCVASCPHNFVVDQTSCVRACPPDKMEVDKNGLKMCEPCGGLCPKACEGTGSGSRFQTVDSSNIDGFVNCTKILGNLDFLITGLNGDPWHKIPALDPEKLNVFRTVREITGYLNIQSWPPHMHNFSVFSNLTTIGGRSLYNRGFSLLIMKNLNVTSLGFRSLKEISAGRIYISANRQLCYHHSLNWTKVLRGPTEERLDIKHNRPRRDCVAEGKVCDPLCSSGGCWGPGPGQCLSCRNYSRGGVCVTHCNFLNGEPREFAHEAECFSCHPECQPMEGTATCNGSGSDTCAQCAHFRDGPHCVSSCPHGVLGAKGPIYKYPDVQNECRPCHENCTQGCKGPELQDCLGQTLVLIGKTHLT
Description: GMB301 was incubated for 1 hour at 37° C. in Maxisorp® plates (Nunc) coated wells with 50 ng human HER3-Fc (recombinant HER3 extracellular domain Fc fusion, R&D systems).
Bound GMB301 antibody were detected by a conjugated HRP-F(ab′)2 goat anti human IgG F(ab′)2 specific (Interchim). After two hours at 37° C. and three washes with PBS-Tween₂₀ 0.5%, TMB (3,3,5,5-tetramethylbenzidine, Sigma) was used as substrate for detecting HRP activity and 1M H₂SO₄ was added to stop the reaction and plate was read at 450 nm.

T1 sequence (P21860 20-643): as above

EC50 [1]: 0.19 nM
EC50 [2]: 0.19 nM
B1: GMB301 (chimeric low-fucose anti-human HER3 antibody) (antibody, human IgG1, kappa, V domains shown)
VH: EVKLVESGGGLVQPGGSLKLSCAASGFTFSSYTMSWVRQTPEKRLEWVAYISDGGGVTYYPDTIKGRFTISRDNAKNTLYLQMSSLKSEDTAMYYCARDRYGLFAYWGQGTLVTVSA
VL: DIVMTQSQKFMSTSVGDRVSITCKASQNVGIAVAWYQQKPGQSPKLLIYSASNRYTGVPDRFTGSGSGTDFTLTISNMQSEDLADYFCQQYSNYPYTFGGGTKLEIKR
modifications: low-fucose N-glycan (produced in YB2/0 cells)
notes: also called mAb GMB301; low-fucose chimerized antibody GMB301
